System: Escherichia coli TOP10
Test: shrunken log2 fold change of peptide-encoding DNA abundance (4.5 h post-induction vs induction); higher = less antimicrobial activity (less host growth inhibition)
Settings: time post-induction: 4.5 h; library: site-saturation at positions 5, 18, 19, 20
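Note: peptides expressed intracellularly from a pBAD plasmid library in pooled LB shake-flask culture, induced with 0.3% L-arabinose, DNA abundance read by NGS, three biological replicates, DESeq2 with apeglm shrinkage.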

Row | Sequence | shrunken log2 fold change
1 | RRIRHRPPRLPRPRPRPTLVPRP | -0.233
2 | RRIRCRPPRLPRPRPRPRRHPRP | -0.0331
3 | RRIRWRPPRLPRPRPRPNNVPRP | -0.207
4 | RRIRWRPPRLPRPRPRPGWGPRP | 0.534
5 | RRIRDRPPRLPRPRPRPSIFPRP | -0.049
6 | RRIRERPPRLPRPRPRPCTSPRP | -0.0275
7 | RRIRERPPRLPRPRPRPMSSPRP | -0.000155
8 | RRIRERPPRLPRPRPRPGCPPRP | 0.0137
9 | RRIRQRPPRLPRPRPRPSIGPRP | -0.268
10 | RRIRTRPPRLPRPRPRPKAYPRP | 0.0161
11 | RRIRPRPPRLPRPRPRPMNAPRP | -0.158
12 | RRIRVRPPRLPRPRPRPNSKPRP | -0.506
13 | RRIRYRPPRLPRPRPRPVDPPRP | -0.0356
14 | RRIRHRPPRLPRPRPRPSYNPRP | -0.86
15 | RRIRARPPRLPRPRPRPDKCPRP | -0.0816
16 | RRIRRRPPRLPRPRPRPPWRPRP | 0.757
17 | RRIRQRPPRLPRPRPRPGPHPRP | 0.0856
18 | RRIRSRPPRLPRPRPRPGYVPRP | -0.809
19 | RRIRYRPPRLPRPRPRPCGVPRP | 2.83
20 | RRIRCRPPRLPRPRPRPSQRPRP | -0.54
21 | RRIRIRPPRLPRPRPRPPMNPRP | -0.368
22 | RRIRIRPPRLPRPRPRPTYDPRP | -1.08
23 | RRIRARPPRLPRPRPRPMIPPRP | 0.0233
24 | RRIRGRPPRLPRPRPRPEWLPRP | 1.5
25 | RRIRFRPPRLPRPRPRPHNFPRP | -0.399

Row | Sequence | shrunken log2 fold change
26 | RRIRCRPPRLPRPRPRPLYTPRP | -0.765
27 | RRIRRRPPRLPRPRPRPMLPPRP | -0.000603
28 | RRIRIRPPRLPRPRPRPELCPRP | 0.0211
29 | RRIRNRPPRLPRPRPRPSSPPRP | 0.0179
30 | RRIRQRPPRLPRPRPRPLQSPRP | -0.0698
31 | RRIRVRPPRLPRPRPRPDDWPRP | -0.198
32 | RRIRERPPRLPRPRPRPEHFPRP | -0.00973
33 | RRIRERPPRLPRPRPRPMNAPRP | -0.259
34 | RRIRTRPPRLPRPRPRPIKRPRP | -0.0164
35 | RRIRVRPPRLPRPRPRPLSMPRP | -0.0717
36 | RRIRDRPPRLPRPRPRPPVCPRP | 0.452
37 | RRIRHRPPRLPRPRPRPMLTPRP | 0.0372
38 | RRIRSRPPRLPRPRPRPLALPRP | -0.107
39 | RRIRNRPPRLPRPRPRPCEIPRP | 0.0361
40 | RRIRCRPPRLPRPRPRPTVMPRP | 0.0757
41 | RRIRSRPPRLPRPRPRPSLMPRP | -0.201
42 | RRIRYRPPRLPRPRPRPDRRPRP | -0.177
43 | RRIRYRPPRLPRPRPRPVDFPRP | -0.226
44 | RRIRFRPPRLPRPRPRPAYVPRP | 0.678
45 | RRIRTRPPRLPRPRPRPYIPPRP | -0.462
46 | RRIRNRPPRLPRPRPRPEDPPRP | 0.00956
47 | RRIRIRPPRLPRPRPRPVFAPRP | 0.0576
48 | RRIRWRPPRLPRPRPRPLWQPRP | 0.156
49 | RRIRHRPPRLPRPRPRPTDSPRP | 0.0894
50 | RRIRGRPPRLPRPRPRPRFEPRP | 0.881

Row | Sequence | shrunken log2 fold change
51 | RRIRIRPPRLPRPRPRPHRDPRP | -0.236
52 | RRIRIRPPRLPRPRPRPGIIPRP | -0.0859
53 | RRIRPRPPRLPRPRPRPSEQPRP | -0.233
54 | RRIRKRPPRLPRPRPRPVTTPRP | 0.0429
55 | RRIRHRPPRLPRPRPRPCWSPRP | -0.166
56 | RRIRRRPPRLPRPRPRPSHCPRP | -0.041
57 | RRIRNRPPRLPRPRPRPFEEPRP | 0.0129
58 | RRIRFRPPRLPRPRPRPSMIPRP | -0.603
59 | RRIRRRPPRLPRPRPRPHLCPRP | 0.189
60 | RRIRYRPPRLPRPRPRPGAWPRP | 0.0731
61 | RRIRIRPPRLPRPRPRPEGWPRP | 0.497
62 | RRIRTRPPRLPRPRPRPCTHPRP | -0.0873
63 | RRIRTRPPRLPRPRPRPWEDPRP | 0.0242
64 | RRIRIRPPRLPRPRPRPISMPRP | 0.0215
65 | RRIRCRPPRLPRPRPRPQFGPRP | -0.233
66 | RRIRRRPPRLPRPRPRPEPQPRP | 1.03
67 | RRIRARPPRLPRPRPRPIKYPRP | -0.38
68 | RRIRSRPPRLPRPRPRPPSVPRP | 0.279
69 | RRIRTRPPRLPRPRPRPSSNPRP | -0.589
70 | RRIRNRPPRLPRPRPRPMCVPRP | -0.166
71 | RRIRPRPPRLPRPRPRPHRVPRP | 0.164
72 | RRIRERPPRLPRPRPRPGGNPRP | -0.442
73 | RRIRARPPRLPRPRPRPRAPPRP | 1.01
74 | RRIRNRPPRLPRPRPRPPLWPRP | 0.539
75 | RRIRYRPPRLPRPRPRPEVCPRP | -0.0334

Row | Sequence | shrunken log2 fold change
76 | RRIRIRPPRLPRPRPRPMAGPRP | 0.022
77 | RRIRDRPPRLPRPRPRPYNTPRP | -0.476
78 | RRIRKRPPRLPRPRPRPPPQPRP | 1.02
79 | RRIRERPPRLPRPRPRPTRIPRP | 0.17
80 | RRIRCRPPRLPRPRPRPHMAPRP | -0.374
81 | RRIRHRPPRLPRPRPRPVKIPRP | -0.0352
82 | RRIRPRPPRLPRPRPRPTFSPRP | -0.182
83 | RRIRERPPRLPRPRPRPGQYPRP | -0.113
84 | RRIRERPPRLPRPRPRPGLCPRP | 0.00687
85 | RRIRQRPPRLPRPRPRPKGIPRP | 0.0655
86 | RRIRERPPRLPRPRPRPTDPPRP | -0.152
87 | RRIRVRPPRLPRPRPRPEFHPRP | -0.489
88 | RRIRKRPPRLPRPRPRPGMIPRP | -0.0362
89 | RRIRWRPPRLPRPRPRPQASPRP | -0.11
90 | RRIRCRPPRLPRPRPRPRAPPRP | 0.87
91 | RRIRPRPPRLPRPRPRPAIHPRP | -0.196
92 | RRIRERPPRLPRPRPRPKNQPRP | -0.281
93 | RRIRHRPPRLPRPRPRPGFEPRP | 0.373
94 | RRIRSRPPRLPRPRPRPHVVPRP | 0.0681
95 | RRIRPRPPRLPRPRPRPTGKPRP | 0.102
96 | RRIRPRPPRLPRPRPRPKCSPRP | -0.197
97 | RRIRRRPPRLPRPRPRPFKKPRP | -0.0451
98 | RRIRGRPPRLPRPRPRPHGMPRP | 0.0949
99 | RRIRLRPPRLPRPRPRPIQCPRP | -0.301
100 | RRIRRRPPRLPRPRPRPPRWPRP | 0.986

Row | Sequence | shrunken log2 fold change
101 | RRIRGRPPRLPRPRPRPIACPRP | 0.526
102 | RRIRIRPPRLPRPRPRPTHTPRP | -0.448
103 | RRIRKRPPRLPRPRPRPKTDPRP | 0.343
104 | RRIRNRPPRLPRPRPRPGNGPRP | -0.462
105 | RRIRIRPPRLPRPRPRPQWWPRP | 0.0271
106 | RRIRARPPRLPRPRPRPSSSPRP | 0.185
107 | RRIRCRPPRLPRPRPRPKEPPRP | 0.302
108 | RRIRKRPPRLPRPRPRPNTHPRP | -0.125
109 | RRIRVRPPRLPRPRPRPPMYPRP | -0.366
110 | RRIRMRPPRLPRPRPRPTISPRP | 0.0688
111 | RRIRSRPPRLPRPRPRPRYTPRP | -0.145
112 | RRIRTRPPRLPRPRPRPPAQPRP | 0.608
113 | RRIRWRPPRLPRPRPRPTMPPRP | 0.256
114 | RRIRDRPPRLPRPRPRPHRMPRP | 0.0707
115 | RRIRMRPPRLPRPRPRPRMDPRP | 0.356
116 | RRIRNRPPRLPRPRPRPIRIPRP | 0.0229
117 | RRIRDRPPRLPRPRPRPFYTPRP | -0.687
118 | RRIRDRPPRLPRPRPRPEWQPRP | 0.0508
119 | RRIRKRPPRLPRPRPRPTFHPRP | 0.136
120 | RRIRLRPPRLPRPRPRPRTDPRP | -0.0417
121 | RRIRPRPPRLPRPRPRPYWYPRP | -0.958
122 | RRIRVRPPRLPRPRPRPWVGPRP | -0.0497
123 | RRIRGRPPRLPRPRPRPDWMPRP | 0.235
124 | RRIRGRPPRLPRPRPRPRMIPRP | 0.646
125 | RRIRTRPPRLPRPRPRPFACPRP | -0.198
